Source: patent publication US20240374682A1, “PHARMACEUTICAL USE OF HYPOXIA-INDUCIBLE LIPID DROPLET-ASSOCIATED PROTEIN OR TRUNCATED FRAGMENT THEREOF” (Westlake University, priority 2021, published 2024)
Residue numbers refer to the chain shown, from its start.

Key:
[1] = system: HuH-7 cells, Hep-G2 cells or 786-0 cells; test: Uptake of Dil-labelled human low-density lipoprotein by cells (flow cytometry); assay type: cell-based; details: 10 μM peptide, 5 μg/mL LDL-Dil, 3 hours, versus solvent (DMSO)
Experimental: 1) HuH-7 cells (Cat. No.: TCHu182. Cell Bank of Type Culture Collection Committee of Chinese Academy of Sciences/Cell Resource Center of Shanghai Institutes for Life Sciences. Chinese Academy of Sciences) and Hep-G2 cells (Cat. No.: HB-8065. ATCC. USA) or 786-0 cells (Cat. No.: Cell Bank TCHul86. Cell Bank of Type Culture Collection Committee of Chinese Academy of Sciences/Cell Resource Center of Shanghai Institutes for Life Sciences, Chinese Academy of Sciences) were cultured with DMEM medium in a 10 cm cell culture dish.
2) Low-density lipoprotein from human plasma and Dil complex (Cat. No. L3482. Invitrogen) were added at a final concentration of 5 μg/mL to the above cells, and at the same time. 10 μM HILPDA P01, truncated sequence P03 of HILPDA or corresponding volume of solvent (DMSO) was added to the cell culture medium.
3) After culturing for 3 hours, the cells were washed twice with PBS, and the flow cytometry experiment was performed, and the Dil signal intensity of the cells was detected on the PE channel (as shown in FIGS. 8A to 8D).

[2] = system: ES-2 cells; test: APOE3-3xHA uptake by recipient ES-2 cells with synthesized HILPDA peptides (immunofluorescence); assay type: cell-based; details: 10 μM peptide, 24 hours, versus solvent (DMSO)
Experimental: (§1) 1) HEK293T cells were cultured with DMEM medium in a 10 cm cell culture dish.
2) A plasmid of APOE3-3xHA gene was expressed in the above cells.
(§2) 3) After 12 hours, the old medium in 1) was replaced with fresh DMEM cell culture medium.
4) After further culturing for 48 hours, the media of the cells cultured in 3) were collected. respectively, and these media were used to directly culture the recipient ES-2 cells (Cat. No.: TCHu111. Cell Bank of Typical Culture Collection Committee of Chinese Academy of Sciences/Cell Resource Center of Shanghai Institutes for Life Sciences. Chinese Academy of Sciences) that had been pre-digested with 0.25% EDTA trypsin, and at the same time, 10 μM truncated sequence HILPDA P01, HILPDA P03 or the corresponding volume of solvent (DMSO) was added to the cell culture media.
5) After culturing for 24 hours, anti-HA antibody (Cat. No.: ab9110, abcam: a fusion protein for detecting APOE3-3xHA gene expression) was used to carry out immunofluorescent staining experiments.

[3] = system: SD rats; test: APOE content in rat cerebrospinal fluid after lateral ventricle injection (ELISA); assay type: in vivo; details: 0.8 mg/kg lateral ventricle, 4 hours after injection, versus solvent
Experimental: 1) SD rats (8-10 weeks, male, Shanghai Family Planning Institute) were injected through lateral ventricle with the truncated sequence P04 of HILPDA at a dose of 0.8 mg/kg rat body weight or with the same amount of solvent (50% DMSO+50% 0.9% NaCl) in total of 20 μL:
2) After 4 hours of injection, the cerebrospinal fluid of the rat was collected:
3) ELISA kit (Cat. No.: E-EL-R1230c, ELabScience) was used to detect the apolipoprotein APOE content in the cerebrospinal fluid.

[4] = system: SD rats; test: Low-density lipoprotein cholesterol level in rat plasma after tail vein injection; assay type: in vivo; details: 1.5 mg/kg tail vein, 5 hours after injection, versus solvent
Experimental: 1) SD rats (8-10 weeks old, female, Shanghai Family Planning Institute) were injected through tail vein with HILPDA P02 at a dose of 1.5 mg/kg rat body weight or the same amount of solvent (50% DMSO+50% 0.9% NaCl) in total of 100 μL:
2) After 5 hours of injection, about 1 mL of blood was collected from the tail vein, and the collected blood was placed in an EDTA-K2 anticoagulant tube and underwent ice-bath for 1 hour, then centrifuged at 2000*g at 4° C., for 10 minutes, and the supernatant plasma was collected:
3) A biochemical analyzer (Mindray 240) was used to analyze the low-density lipoprotein cholesterol content in the plasma (as shown in FIG. 10).

[5] = system: recipient cells (786-O, 769-P, HuH7, ES-2); test: APOE uptake by recipient cells from conditioned medium of HEK293T cells co-expressing HILPDA-Flag and APOE-3xHA (immunofluorescence); assay type: cell-based; details: 24 hours
Experimental: as §1
(§3) 2) The above cells were separately co-transfected with:
GFP-Flag expressing plasmid and APOE2-3xHA plasmid,
GFP-Flag expressing plasmid and APOE3-3xHA plasmid,
GFP-Flag expressing plasmid and APOE4-3xHA plasmid,
HILPDA-Flag expressing plasmid and APOE2-3xHA plasmid,
HILPDA-Flag expressing plasmid and APOE3-3xHA plasmid, and
HILPDA-Flag expressing plasmid and APOE4-3xHA plasmid.
as §2
4) After further culturing for 48 hours, the media of the cultured cells in 3) were collected, respectively, and these media were used to directly culture the recipient cells, such as 786-O (Cat. No.: Cell Bank TCHu186, Cell Bank of Type Culture Collection Committee of Chinese Academy of Sciences/Cell Resource Center of Shanghai Institutes for Life Sciences, Chinese Academy of Sciences), 769-P (Cat. No.: Cell Bank TCHu215, Cell Bank of Type Culture Collection Committee of Chinese Academy of Sciences/Cell Resource Center of Shanghai Institutes for Life Sciences, Chinese Academy of Sciences), HuH7 (Cat. No.: TCHu182, Cell Bank of Type Culture Collection Committee of Chinese Academy of Sciences/Cell Resource Center of Shanghai Institutes for Life Sciences, Chinese Academy of Sciences), ES-2 (Cat. No.: TCHu111, Cell Bank of Type Culture Collection Committee of Chinese Academy of Sciences/Cell Resource Center of Shanghai Institutes for Life Sciences, Chinese Academy of Sciences) wild-type cells, that had been pre-digested with trypsin containing 0.25% EDTA.
5) After culturing for 24 hours, anti-Flag (Cat. No.: F1804, sigma: for detecting GFP-Flag or HILPDA-Flag fusion protein) and anti-HA antibody (Cat. No.: ab9110, abcam: for detecting fusion proteins expressed by three different alleles of APOE2-3xHA, APOE3-3xHA or APOE4-3xHA) were used to perform immunofluorescent staining experiments.

[6] = system: mouse brain slices; test: APOE3 uptake by mouse brain slices from conditioned medium (immunofluorescence); assay type: cell-based; details: conditioned HEK293T medium, 48 hours, versus GFP-Flag + APOE3-3xHA
Experimental: as §1, §3
plasmid expressing GFP-FLAG and APOE3-3xHA plasmid, and
plasmid expressing HILPDA-Flag and APOE3-3xHA plasmid,
as §2
4) After further culturing for 48 hours, the media of the cultured cells in 3) were collected, respectively, and these media were used to directly culture mouse brain slices, wherein the brain slices were obtained by slicing fresh mouse brains to reach a thickness of 150 μm by a vibrating microtome. The slices were cultured in DMEM medium.
5) After culturing for 48 hours, immunofluorescent staining experiments were carried out with anti-HA antibody (Cat. No.: ab9110, abcam: for detecting APOE3-3xHA fusion protein).

[7] = system: neuronal cells obtained by induction and differentiation of human embryonic stem cells; test: APOE uptake by recipient neuronal cells from conditioned medium (western blotting); assay type: cell-based; details: conditioned HEK293T medium, 24 hours
Experimental: as §1
2) The above cells separately were: transfected to express APOE2-3xHA plasmid, transfected to express APOE3-3xHA plasmid, transfected to express APOE4-3xHA plasmid, co-transfected with plasmid expressing HILPDA-Flag and APOE2-3xHA plasmid, co-transfected with plasmid expressing HILPDA-Flag and APOE3-3xHA plasmid, and co-transfected with plasmid expressing HILPDA-Flag and APOE4-3xHA plasmid.
as §2
4) After further culturing for 48 hours, the media of the cultured cells in 3) were collected, respectively, and these media were used to directly culture recipient neuronal cells, wherein the neuronal cells were obtained by induction and differentiation of human embryonic stem cells (WA09-H9 Wincell Research Institute) through STEMdiff Neural (STEMCELL Technologits) differentiation system.
5) After culturing for 24 hours, anti-Actin (Cat. No.: Proteintech, 66009-1-Ig) and anti-HA antibody (Cat. No.: ab9110, abcam: used to detect three fusion proteins expressed by different alleles APOE2-3xHA, APOE3-3xHA or APOE4-3xHA) were used to perform western blotting.

## HILPDA P03: synthesized truncated human HILPDA, SEQ ID NO: 13 (MKHVLNLYLLGVVLTLLSIF) (truncated fragment of human HILPDA)
[1]
  uptake of human low-density lipoprotein particles (Dil signal intensity): Promote the Uptake
[2]
  APOE3-3xHA uptake by recipient cells (anti-HA fluorescent signal): Promote the Clearance

## HILPDA P04: synthesized truncated rat HILPDA, SEQ ID NO: 14 (MKYMLNLYVLGVMLTLLSIF) (truncated fragment of rat HILPDA)
[3]
  content of apolipoprotein APOE in the cerebrospinal fluid: significantly decreased

B1: HILPDA P01: synthesized mouse HILPDA polypeptide, SEQ ID NO: 2 (peptide, listed as Mus musculus)
chain: MKFMLNLYVLGIMLTLLSIFVRVMESLGGLLESPLPGSSWITRGQLANTQPPKGLPDHPSRGVQ
[1]
  uptake of human low-density lipoprotein particles (Dil signal intensity): Promote the Uptake
[2]
  APOE3-3xHA uptake by recipient cells (anti-HA fluorescent signal): Promote the Clearance

B2: HILPDA P02: synthesized rat HILPDA polypeptide, SEQ ID NO: 12 (peptide, listed as Rattus norvegicus)
chain: B1 chain with F3Y, I12V, V23L, S33N, Q45H, K53R
[4]
  low-density lipoprotein cholesterol level in plasma: significantly reduced

B3: HILPDA-Flag: human HILPDA protein fused with FLAG tag, expressed in HEK293T cells and secreted into culture medium (protein, UniProt Q9Y5L2 1-63, looked up)
Hypoxia-inducible lipid …: MKHVLNLYLLGVVLTLLSIFVRVMESLEGLLESPSPGTSWTTRSQLANTEPTKGLPDHPSRSM
modifications: FLAG tag
notes: human HILPDA protein fused with FLAG tag, expressed in HEK293T cells and secreted into culture medium
[5]; versus GFP-Flag + APOE2-3xHA
  APOE2-3xHA uptake by recipient cells (anti-HA fluorescent signal): more and stronger fluorescent signals
[5]; versus GFP-Flag + APOE3-3xHA
  APOE3-3xHA uptake by recipient cells (anti-HA fluorescent signal): more and stronger fluorescent signals
[5]; versus GFP-Flag + APOE4-3xHA
  APOE4-3xHA uptake by recipient cells (anti-HA fluorescent signal): more and stronger fluorescent signals
[6]
  APOE3-3xHA uptake by brain slices (anti-HA fluorescent signal): more and stronger fluorescent signals
[7]; versus APOE2-3xHA alone
  APOE2-3xHA level in recipient neuronal cells (anti-HA bands): higher levels of APOE
[7]; versus APOE3-3xHA alone
  APOE3-3xHA level in recipient neuronal cells (anti-HA bands): higher levels of APOE
[7]; versus APOE4-3xHA alone
  APOE4-3xHA level in recipient neuronal cells (anti-HA bands): higher levels of APOE
